This is an account of results in publication PMC8204385 (Biophysical Journal, 2021).

For this assay, the target named is T1, human SHP-1 (Homo sapiens, UniProt P29350).
T1 construct: 6xHis (N); made in house; host or cells: Escherichia coli BL21-CodonPlus (DE3)-RIPL
The assay is described as follows: SPR-based assay for tethered SHP-1 reactions on immobilised phosphopeptides, extended MPDPDE model fit. It is filed as binding. The following applies: 37°C; vertical intercept of regression of L^2 vs number of PEG linkers, all data except PEG0.

Where “and” joins values, the source holds several entries; their conditions need not be identical. Identical values can stand only once.

T1 sequence (P29350 whole entry): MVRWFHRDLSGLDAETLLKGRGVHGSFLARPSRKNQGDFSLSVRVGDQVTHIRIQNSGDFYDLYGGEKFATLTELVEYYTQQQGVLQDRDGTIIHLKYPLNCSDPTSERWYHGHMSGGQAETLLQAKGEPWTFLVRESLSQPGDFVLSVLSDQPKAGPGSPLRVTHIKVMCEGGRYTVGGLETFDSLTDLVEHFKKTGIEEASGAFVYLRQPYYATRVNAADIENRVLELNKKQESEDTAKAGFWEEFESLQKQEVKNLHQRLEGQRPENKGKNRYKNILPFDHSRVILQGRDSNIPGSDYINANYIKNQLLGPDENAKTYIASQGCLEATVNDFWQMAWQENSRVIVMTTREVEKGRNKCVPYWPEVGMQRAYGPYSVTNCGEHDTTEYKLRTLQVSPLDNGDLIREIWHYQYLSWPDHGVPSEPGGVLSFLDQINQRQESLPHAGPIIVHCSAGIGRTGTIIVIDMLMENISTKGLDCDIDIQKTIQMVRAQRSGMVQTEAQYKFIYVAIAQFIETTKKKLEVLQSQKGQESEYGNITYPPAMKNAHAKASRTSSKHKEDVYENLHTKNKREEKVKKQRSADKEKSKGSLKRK

Turning to “SHP-1: Human tyrosine phosphatase SHP-1 with an N-terminal 6× His tag produced in Escherichia coli”, the “molecular reach of SHP-1 (LSHP-1)” value was 13.0 nm and 13.0 ± 0.8 nm.
